Assay results published in EP4671273A1 (Anaveon AG, dated 2025).
Where two headings read alike, the source gives them in different places.

B1: VYL308 (bispecific antibody, human IgG1, kappa, lambda, L234A L235A)
heavy 1: EVQLLESGGGLVQPGGSLRLSCAASGFTFSINAMTWVRQAPGKGLEWVSTISGSGFSTYYADSLKGRFTISRDNSKNTLYLQMNSLRAEDTAVYYCAKEVYGDYWGQGTLVTVSSASTKGPSVFPLAPSSKSTSGGTAALGCLVKDYFPEPVTVSWNSGALTSGVHTFPAVLQSSGLYSLSSVVTVPSSSLGTQTYICNVNHKPSNTKVDKRVEPKSCDKTHTCPPCPAPEAAGGPSVFLFPPKPKDTLMISRTPEVTCVVVDVSHEDPEVKFNWYVDGVEVHNAKTKPREEQYNSTYRVVSVLTVLHQDWLNGKEYKCKVSNKALAAPIEKTISKAKGQPREPQVCTLPPSREEMTKNQVSLSCAVKGFYPSDIAVEWESNGQPENNYKTTPPVLDSDGSFFLVSKLTVDKSRWQQGNVFSCSVMHEALHNHYTQKSLSLSPGK
light 1: not shown
heavy 2: QVQLQESGPGLVKPSETLSLTCTVSGGSISSDYWGWIRQPPGKGLEWIGYISYRGSTNYNPSLKSRVTISVDTSRNQFSLKLSSVTAADTAVYYCARSAGVTDFDAWGQGTLVTVSSASTKGPSVFPLAPSSKSTSGGTAALGCLVKDYFPEPVTVSWNSGALTSGVHTFPAVLQSSGLYSLSSVVTVPSSSLGTQTYICNVNHKPSNTKVDKRVEPKSCDKTHTCPPCPAPEAAGGPSVFLFPPKPKDTLMISRTPEVTCVVVDVSHEDPEVKFNWYVDGVEVHNAKTKPREEQYNSTYRVVSVLTVLHQDWLNGKEYKCKVSNKALAAPIEKTISKAKGQPREPQVYTLPPCREEMTKNQVSLWCLVKGFYPSDIAVEWESNGQPENNYKTTPPVLDSDGSFFLYSKLTVDKSRWQQGNVFSCSVMHEALHNHYTQKSLSLSPGK
light 2: not shown
B2: UNY098 (bispecific antibody, human IgG1, kappa, lambda, L234A L235A)
heavy 1: EVQLLESGGGLVQPGGSLRLSCAASGFTFSINAMTWVRQAPGKGLEWVSTISGSGFSTYYADSLKGRFTISRDNSKNTLYLQMNSLRAEDTAVYYCAKEVYGDYWGQGTLVTVSSASTKGPSVFPLAPSSKSTSGGTAALGCLVKDYFPEPVTVSWNSGALTSGVHTFPAVLQSSGLYSLSSVVTVPSSSLGTQTYICNVNHKPSNTKVDKRVEPKSCDKTHTCPPCPAPEAAGGPSVFLFPPKPKDTLMISRTPEVTCVVVDVSHEDPEVKFNWYVDGVEVHNAKTKPREEQYNSTYRVVSVLTVLHQDWLNGKEYKCKVSNKALAAPIEKTISKAKGQPREPQVCTLPPSREEMTKNQVSLSCAVKGFYPSDIAVEWESNGQPENNYKTTPPVLDSDGSFFLVSKLTVDKSRWQQGNVFSCSVMHEALHNHYTQKSLSLSPGK
light 1: not shown
heavy 2: QVQLQESGPGLVKPSETLSLTCTVSGGSISSDYWGWIRQPPGKGLEWIGYISYRGSTNYNPSLKSRVTISVDTSRNQFSLKLSSVTAADTAVYYCARSAGVTDFDAWGQGTLVTVSSASTKGPSVFPLAPSSKSTSGGTAALGCLVKDYFPEPVTVSWNSGALTSGVHTFPAVLQSSGLYSLSSVVTVPSSSLGTQTYICNVNHKPSNTKVDKRVEPKSCDKTHTCPPCPAPEAAGGPSVFLFPPKPKDTLMISRTPEVTCVVVDVSHEDPEVKFNWYVDGVEVHNAKTKPREEQYNSTYRVVSVLTVLHQDWLNGKEYKCKVSNKALAAPIEKTISKAKGQPREPQVYTLPPCREEMTKNQVSLWCLVKGFYPSDIAVEWESNGQPENNYKTTPPVLDSDGSFFLYSKLTVDKSRWQQGNVFSCSVMHEALHNHYTQKSLSLSPGK
light 2: not shown
B3: ULS916 (bispecific antibody, human IgG1, kappa, lambda, L234A L235A)
heavy 1: EVQLLESGGGLVQPGGSLRLSCAASGFTFSINAMTWVRQAPGKGLEWVSTISGSGFSTYYADSLKGRFTISRDNSKNTLYLQMNSLRAEDTAVYYCAKEVYGDYWGQGTLVTVSSASTKGPSVFPLAPSSKSTSGGTAALGCLVKDYFPEPVTVSWNSGALTSGVHTFPAVLQSSGLYSLSSVVTVPSSSLGTQTYICNVNHKPSNTKVDKRVEPKSCDKTHTCPPCPAPEAAGGPSVFLFPPKPKDTLMISRTPEVTCVVVDVSHEDPEVKFNWYVDGVEVHNAKTKPREEQYNSTYRVVSVLTVLHQDWLNGKEYKCKVSNKALAAPIEKTISKAKGQPREPQVCTLPPSREEMTKNQVSLSCAVKGFYPSDIAVEWESNGQPENNYKTTPPVLDSDGSFFLVSKLTVDKSRWQQGNVFSCSVMHEALHNHYTQKSLSLSPGK
light 1: not shown
heavy 2: QVQLQESGPGLVKPSETLSLTCTVSGGSISSDYWGWIRQPPGKGLEWIGYISYRGSTNYNPSLKSRVTISVDTSRNQFSLKLSSVTAADTAVYYCARSAGVTDFDAWGQGTLVTVSSASTKGPSVFPLAPSSKSTSGGTAALGCLVKDYFPEPVTVSWNSGALTSGVHTFPAVLQSSGLYSLSSVVTVPSSSLGTQTYICNVNHKPSNTKVDKRVEPKSCDKTHTCPPCPAPEAAGGPSVFLFPPKPKDTLMISRTPEVTCVVVDVSHEDPEVKFNWYVDGVEVHNAKTKPREEQYNSTYRVVSVLTVLHQDWLNGKEYKCKVSNKALAAPIEKTISKAKGQPREPQVYTLPPCREEMTKNQVSLWCLVKGFYPSDIAVEWESNGQPENNYKTTPPVLDSDGSFFLYSKLTVDKSRWQQGNVFSCSVMHEALHNHYTQKSLSLSPGK
light 2: not shown
B4: JAK529 (bispecific antibody, human IgG1, kappa, lambda, L234A L235A)
heavy 1: EVQLLESGGGLVQPGGSLRLSCAASGFTFSINAMTWVRQAPGKGLEWVSTISGSGFSTYYADSLKGRFTISRDNSKNTLYLQMNSLRAEDTAVYYCAKEVYGDYWGQGTLVTVSSASTKGPSVFPLAPSSKSTSGGTAALGCLVKDYFPEPVTVSWNSGALTSGVHTFPAVLQSSGLYSLSSVVTVPSSSLGTQTYICNVNHKPSNTKVDKRVEPKSCDKTHTCPPCPAPEAAGGPSVFLFPPKPKDTLMISRTPEVTCVVVDVSHEDPEVKFNWYVDGVEVHNAKTKPREEQYNSTYRVVSVLTVLHQDWLNGKEYKCKVSNKALAAPIEKTISKAKGQPREPQVCTLPPSREEMTKNQVSLSCAVKGFYPSDIAVEWESNGQPENNYKTTPPVLDSDGSFFLVSKLTVDKSRWQQGNVFSCSVMHEALHNHYTQKSLSLSPGK
light 1: not shown
heavy 2: not shown
light 2: DIQMTQSPSSVSASVGDRVTITCRASQGISSWLAWYQHKPGKAPKLLIYVASSLQSGVPSRFSGSGSGTDFTLTISSLQPEDFATYYCQQANSAPLTFGGGTKVEIKRTVAAPSVFIFPPSDEQLKSGTASVVCLLNNFYPREAKVQWKVDNALQSGNSQESVTEQDSKDSTYSLSSTLTLSKADYEKHKVYACEVTHQGLSSPVTKSFNRGEC
B5: CMQ332 (bispecific antibody, human IgG1, kappa, lambda, L234A L235A)
heavy 1: EVQLLESGGGLVQPGGSLRLSCAASGFTFSINAMTWVRQAPGKGLEWVSTISGSGFSTYYADSLKGRFTISRDNSKNTLYLQMNSLRAEDTAVYYCAKEVYGDYWGQGTLVTVSSASTKGPSVFPLAPSSKSTSGGTAALGCLVKDYFPEPVTVSWNSGALTSGVHTFPAVLQSSGLYSLSSVVTVPSSSLGTQTYICNVNHKPSNTKVDKRVEPKSCDKTHTCPPCPAPEAAGGPSVFLFPPKPKDTLMISRTPEVTCVVVDVSHEDPEVKFNWYVDGVEVHNAKTKPREEQYNSTYRVVSVLTVLHQDWLNGKEYKCKVSNKALAAPIEKTISKAKGQPREPQVCTLPPSREEMTKNQVSLSCAVKGFYPSDIAVEWESNGQPENNYKTTPPVLDSDGSFFLVSKLTVDKSRWQQGNVFSCSVMHEALHNHYTQKSLSLSPGK
light 1: not shown
heavy 2: not shown
light 2: DIQMTQSPSSVSASVGDRVTITCRASQGISSWLAWYQHKPGKAPKLLIYVASSLQSGVPSRFSGSGSGTDFTLTISSLQPEDFATYYCQQANSAPLTFGGGTKVEIKRTVAAPSVFIFPPSDEQLKSGTASVVCLLNNFYPREAKVQWKVDNALQSGNSQESVTEQDSKDSTYSLSSTLTLSKADYEKHKVYACEVTHQGLSSPVTKSFNRGEC
B6: OUQ507 (bispecific antibody, human IgG1, kappa, lambda, L234A L235A)
heavy 1: EVQLLESGGGLVQPGGSLRLSCAASGFTFSINAMTWVRQAPGKGLEWVSTISGSGFSTYYADSLKGRFTISRDNSKNTLYLQMNSLRAEDTAVYYCAKEVYGDYWGQGTLVTVSSASTKGPSVFPLAPSSKSTSGGTAALGCLVKDYFPEPVTVSWNSGALTSGVHTFPAVLQSSGLYSLSSVVTVPSSSLGTQTYICNVNHKPSNTKVDKRVEPKSCDKTHTCPPCPAPEAAGGPSVFLFPPKPKDTLMISRTPEVTCVVVDVSHEDPEVKFNWYVDGVEVHNAKTKPREEQYNSTYRVVSVLTVLHQDWLNGKEYKCKVSNKALAAPIEKTISKAKGQPREPQVCTLPPSREEMTKNQVSLSCAVKGFYPSDIAVEWESNGQPENNYKTTPPVLDSDGSFFLVSKLTVDKSRWQQGNVFSCSVMHEALHNHYTQKSLSLSPGK
light 1: not shown
heavy 2: not shown
light 2: DIQMTQSPSSVSASVGDRVTITCRASQGISSWLAWYQHKPGKAPKLLIYVASSLQSGVPSRFSGSGSGTDFTLTISSLQPEDFATYYCQQANSAPLTFGGGTKVEIKRTVAAPSVFIFPPSDEQLKSGTASVVCLLNNFYPREAKVQWKVDNALQSGNSQESVTEQDSKDSTYSLSSTLTLSKADYEKHKVYACEVTHQGLSSPVTKSFNRGEC
B7: EXX354 (bispecific antibody, human IgG1, kappa, lambda, L234A L235A)
heavy 1: EVQLLESGGGLVQPGGSLRLSCAASGFTFSINAMTWVRQAPGKGLEWVSTISGSGFSTYYADSLKGRFTISRDNSKNTLYLQMNSLRAEDTAVYYCAKEVYGDYWGQGTLVTVSSASTKGPSVFPLAPSSKSTSGGTAALGCLVKDYFPEPVTVSWNSGALTSGVHTFPAVLQSSGLYSLSSVVTVPSSSLGTQTYICNVNHKPSNTKVDKRVEPKSCDKTHTCPPCPAPEAAGGPSVFLFPPKPKDTLMISRTPEVTCVVVDVSHEDPEVKFNWYVDGVEVHNAKTKPREEQYNSTYRVVSVLTVLHQDWLNGKEYKCKVSNKALAAPIEKTISKAKGQPREPQVCTLPPSREEMTKNQVSLSCAVKGFYPSDIAVEWESNGQPENNYKTTPPVLDSDGSFFLVSKLTVDKSRWQQGNVFSCSVMHEALHNHYTQKSLSLSPGK
light 1: not shown
heavy 2: not shown
light 2: DIQMTQSPSSVSASVGDRVTITCRASQGISSWLAWYQHKPGKAPKLLIYVASSLQSGVPSRFSGSGSGTDFTLTISSLQPEDFATYYCQQANSAPLTFGGGTKVEIKRTVAAPSVFIFPPSDEQLKSGTASVVCLLNNFYPREAKVQWKVDNALQSGNSQESVTEQDSKDSTYSLSSTLTLSKADYEKHKVYACEVTHQGLSSPVTKSFNRGEC

Tests used:
[1] = target: T1, human IL-21 receptor (IL-21R) on cells (human, UniProt Q9HBE5 20-538; P31785 23-369); experiment: cell-based or functional assay
T1 sequence (Q9HBE5 20-538, chain 1 of 2): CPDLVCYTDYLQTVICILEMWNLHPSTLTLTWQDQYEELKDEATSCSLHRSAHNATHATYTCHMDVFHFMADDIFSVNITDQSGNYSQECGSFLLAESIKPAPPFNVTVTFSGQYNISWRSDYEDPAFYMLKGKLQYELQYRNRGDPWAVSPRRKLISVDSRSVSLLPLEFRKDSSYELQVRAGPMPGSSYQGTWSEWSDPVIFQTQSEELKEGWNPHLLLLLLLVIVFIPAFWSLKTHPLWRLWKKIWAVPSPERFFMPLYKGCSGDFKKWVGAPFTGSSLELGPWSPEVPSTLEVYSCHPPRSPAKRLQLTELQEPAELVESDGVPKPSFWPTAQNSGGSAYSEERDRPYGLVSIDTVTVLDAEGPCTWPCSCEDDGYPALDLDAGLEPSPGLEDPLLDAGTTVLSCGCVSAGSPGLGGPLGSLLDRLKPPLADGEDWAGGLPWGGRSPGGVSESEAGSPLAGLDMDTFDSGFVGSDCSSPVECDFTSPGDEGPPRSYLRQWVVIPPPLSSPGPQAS
T1 sequence (P31785 23-369, chain 2 of 2): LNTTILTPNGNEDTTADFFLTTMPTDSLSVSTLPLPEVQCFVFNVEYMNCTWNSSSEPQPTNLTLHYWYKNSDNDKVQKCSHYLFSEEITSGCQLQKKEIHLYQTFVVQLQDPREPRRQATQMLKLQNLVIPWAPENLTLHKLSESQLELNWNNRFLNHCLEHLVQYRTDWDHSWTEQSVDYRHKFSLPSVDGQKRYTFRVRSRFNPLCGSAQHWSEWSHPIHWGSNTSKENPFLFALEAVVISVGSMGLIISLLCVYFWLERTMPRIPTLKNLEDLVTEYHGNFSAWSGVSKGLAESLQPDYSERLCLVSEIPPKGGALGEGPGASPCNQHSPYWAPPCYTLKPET

[2] = target: T1, human IL-21 receptor (IL-21R) on cells; experiment: cell-based or functional assay; remark: listed apart in the source

Binder	EC50B, pSTAT3+ Jurkat PD-1 cells, PD-1 blocked [1]	EC50NB, pSTAT3+ Jurkat PD-1 cells [1] [pM]	EC50B, pSTAT3+ Jurkat PD-1 cells, PD-1 blocked [2]	EC50NB, pSTAT3+ Jurkat PD-1 cells [2] [pM]
B1	56 pM	0.7	–	–
B2	0.333 nM	7	–	–
B3	0.873 nM	6	–	–
B4	–	–	0.44 nM	27
B5	–	–	34 pM	12
B6	–	–	0.42 nM	24
B7	–	–	0.28 nM	39
